B1: Tumor necrosis factor receptor superfamily member 6 (Homo sapiens), P25445-1 (parent)
chain: MLGIWTLLPLVLTSVARLSSKSVNAQVTDINSKGLELRKTVTTVETQNLEGLHHDGQFCHKPCPPGERKARDCTVNGDEPDCVPCQEGKEYTDKAHFSSKCRRCRLCDEGHGLEVEINCTRTQNTKCRCKPNFFCNSTVCEHCDPCTKCEHGIIKECTLTSNTKCKEEGSRSNLGWLCLLLLPIPLIVWVKRKEVQKTCRKHRKENQGSHESPTLNPETVAINLSDVDLSKYITTIAGVMTLSQVKGFVRKNGVNEAKIDEIKNDNVQDTAEQKVQLLRNWHQLHGKKEAYDTLIKDLKKANLCTLAEKIQTIILKDITSDSENSNFRNEIQSLV
B2: FAS-associated death domain protein (Homo sapiens), Q13158 (parent)
chain: MDPFLVLLHSVSSSLSSSELTELKFLCLGRVGKRKLERVQSGLDLFSMLLEQNDLEPGHTELLRELLASLRRHDLLRRVDDFEAGAAAGAAPGEEDLCAAFNVICDNVGKDWRRLARQLKVSDTKIDSIEDRYPRNLTERVRESLRIWKNTEKENATVAHLVGALRSCQMNLVADLVQEVQQARDLQNRSGAMSPMSWNSDASTSEAS

Variants of: B1
Conditions: with fadd_human FADD

| Variant | effect of a mutation on the interaction |
| --- | --- |
| MLGIWTLLPLVLTSVARLSSKSVNAQVTDINSKGLELRKTVTTVETQNLEGLHHDGQFCHKPCPPGERKARDCTVNGDEPDCVPCQEGKEYTDKAHFSSKCRRCRLCDEGHGLEVEINCTRTQNTKCRCKPNFFCNSTVCEHCDPCTKCEHGIIKECTLTSNTKCKEEGSRSNLGWLCLLLLPIPLIVWVKRKEVQKTCRKHRKENQGSHESPTLNPETVAINLSDVDLSKYITTIAGVMTLSQVKGFVRKNGVNEAKIDEIKNDNVQDTAEQKVQLLRNWHQLHGDKEAYDTLIKDLKKANLCTLAEKIQTIILKDITSDSENSNFRNEIQSLV [K287D] | disrupting interaction |
| MLGIWTLLPLVLTSVARLSSKSVNAQVTDINSKGLELRKTVTTVETQNLEGLHHDGQFCHKPCPPGERKARDCTVNGDEPDCVPCQEGKEYTDKAHFSSKCRRCRLCDEGHGLEVEINCTRTQNTKCRCKPNFFCNSTVCEHCDPCTKCEHGIIKECTLTSNTKCKEEGSRSNLGWLCLLLLPIPLIVWVKRKEVQKTCRKHRKENQGSHESPTLNPETVAINLSDVDLSKYITTIAGVMTLSQVKGFVRKNGVNEAKIDEIKNDNVQDTAEQKVQLLRNWHKLHGKKEAYDTLIKDLKKANLCTLAEKIQTIILKDITSDSENSNFRNEIQSLV [Q283K] | disrupting interaction |
| MLGIWTLLPLVLTSVARLSSKSVNAQVTDINSKGLELRKTVTTVETQNLEGLHHDGQFCHKPCPPGERKARDCTVNGDEPDCVPCQEGKEYTDKAHFSSKCRRCRLCDEGHGLEVEINCTRTQNTKCRCKPNFFCNSTVCEHCDPCTKCEHGIIKECTLTSNTKCKEEGSRSNLGWLCLLLLPIPLIVWVKRKEVQKTCRKHRKENQGSHESPTLNPETVAINLSDVDLSKYITTIAGVMTLSQVKGFVRKNGVNEAKIDEIKNDNVQDKAEQKVQLLRNWHQLHGKKEAYDTLIKDLKKANLCTLAEKIQTIILKDITSDSENSNFRNEIQSLV [T270K] | disrupting interaction |
| MLGIWTLLPLVLTSVARLSSKSVNAQVTDINSKGLELRKTVTTVETQNLEGLHHDGQFCHKPCPPGERKARDCTVNGDEPDCVPCQEGKEYTDKAHFSSKCRRCRLCDEGHGLEVEINCTRTQNTKCRCKPNFFCNSTVCEHCDPCTKCEHGIIKECTLTSNTKCKEEGSRSNLGWLCLLLLPIPLIVWVKRKEVQKTCRKHRKENQGSHESPTLNPETVAINLSDVDLSKYITTIAGVMTLSQVKGFVRKNGVNEAKIDEIKNDNVQDTAKQKVQLLRNWHQLHGKKEAYDTLIKDLKKANLCTLAEKIQTIILKDITSDSENSNFRNEIQSLV [E272K] | disrupting interaction |
| MLGIWTLLPLVLTSVARLSSKSVNAQVTDINSKGLELRKTVTTVETQNLEGLHHDGQFCHKPCPPGERKARDCTVNGDEPDCVPCQEGKEYTDKAHFSSKCRRCRLCDEGHGLEVEINCTRTQNTKCRCKPNFFCNSTVCEHCDPCTKCEHGIIKECTLTSNTKCKEEGSRSNLGWLCLLLLPIPLIVWVKRKEVQKTCRKHRKENQGSHESPTLNPETVAINLSDVDLSKYITTIAGVMTLSQVKGFVRKNGVNEAKIDKIKNDNVQDTAEQKVQLLRNWHQLHGKKEAYDTLIKDLKKANLCTLAEKIQTIILKDITSDSENSNFRNEIQSLV [E261K] | disrupting interaction |
| MLGIWTLLPLVLTSVARLSSKSVNAQVTDINSKGLELRKTVTTVETQNLEGLHHDGQFCHKPCPPGERKARDCTVNGDEPDCVPCQEGKEYTDKAHFSSKCRRCRLCDEGHGLEVEINCTRTQNTKCRCKPNFFCNSTVCEHCDPCTKCEHGIIKECTLTSNTKCKEEGSRSNLGWLCLLLLPIPLIVWVKRKEVQKTCRKHRKENQGSHESPTLNPETVAINLSDVDLSKYITTIAGVMTLSQVKGFVRKNGVNEAKIYEIKNDNVQDTAEQKVQLLRNWHQLHGKKEAYDTLIKDLKKANLCTLAEKIQTIILKDITSDSENSNFRNEIQSLV [D260Y] | disrupting interaction |
| MLGIWTLLPLVLTSVARLSSKSVNAQVTDINSKGLELRKTVTTVETQNLEGLHHDGQFCHKPCPPGERKARDCTVNGDEPDCVPCQEGKEYTDKAHFSSKCRRCRLCDEGHGLEVEINCTRTQNTKCRCKPNFFCNSTVCEHCDPCTKCEHGIIKECTLTSNTKCKEEGSRSNLGWLCLLLLPIPLIVWVKRKEVQKTCRKHRKENQGSHESPTLNPETVAINLSDVDLSKYITTIAGVMTLSQVKGFVRKNGVNEDKIDEIKNDNVQDTAEQKVQLLRNWHQLHGKKEAYDTLIKDLKKANLCTLAEKIQTIILKDITSDSENSNFRNEIQSLV [A257D] | disrupting interaction |
| MLGIWTLLPLVLTSVARLSSKSVNAQVTDINSKGLELRKTVTTVETQNLEGLHHDGQFCHKPCPPGERKARDCTVNGDEPDCVPCQEGKEYTDKAHFSSKCRRCRLCDEGHGLEVEINCTRTQNTKCRCKPNFFCNSTVCEHCDPCTKCEHGIIKECTLTSNTKCKEEGSRSNLGWLCLLLLPIPLIVWVKRKEVQKTCRKHRKENQGSHESPTLNPETVAINLSDVDLSKYITTIAGVMTLSQVKGFVEKNGVNEAKIDEIKNDNVQDTAEQKVQLLRNWHQLHGKKEAYDTLIKDLKKANLCTLAEKIQTIILKDITSDSENSNFRNEIQSLV [R250E] | disrupting interaction strength |
| MLGIWTLLPLVLTSVARLSSKSVNAQVTDINSKGLELRKTVTTVETQNLEGLHHDGQFCHKPCPPGERKARDCTVNGDEPDCVPCQEGKEYTDKAHFSSKCRRCRLCDEGHGLEVEINCTRTQNTKCRCKPNFFCNSTVCEHCDPCTKCEHGIIKECTLTSNTKCKEEGSRSNLGWLCLLLLPIPLIVWVKRKEVQKTCRKHRKENQGSHESPTLNPETVAINLSDVDLSKYITTIAGVMTLSQVKGFVQKNGVNEAKIDEIKNDNVQDTAEQKVQLLRNWHQLHGKKEAYDTLIKDLKKANLCTLAEKIQTIILKDITSDSENSNFRNEIQSLV [R250Q] | decreasing interaction strength |

Variants of: B1
Conditions: with fadd_human FADD
Remark: another data set of the same source

| Variant | effect of a mutation on the interaction |
| --- | --- |
| MLGIWTLLPLVLTSVARLSSKSVNAQVTDINSKGLELRKTVTTVETQNLEGLHHDGQFCHKPCPPGERKARDCTVNGDEPDCVPCQEGKEYTDKAHFSSKCRRCRLCDEGHGLEVEINCTRTQNTKCRCKPNFFCNSTVCEHCDPCTKCEHGIIKECTLTSNTKCKEEGSRSNLGWLCLLLLPIPLIVWVKRKEVQKTCRKHRKENQGSHESPTLNPETVAINLSDVDLSKYITTIAGVMTLSQVKGFVRKNGVNEAKIYEIKNDNVQDTAEQKVQLLRNWHQLHGKKEAYDTLIKDLKKANLCTLAEKIQTIILKDITSDSENSNFRNEIQSLV [D260Y] | disrupting interaction strength |
| MLGIWTLLPLVLTSVARLSSKSVNAQVTDINSKGLELRKTVTTVETQNLEGLHHDGQFCHKPCPPGERKARDCTVNGDEPDCVPCQEGKEYTDKAHFSSKCRRCRLCDEGHGLEVEINCTRTQNTKCRCKPNFFCNSTVCEHCDPCTKCEHGIIKECTLTSNTKCKEEGSRSNLGWLCLLLLPIPLIVWVKRKEVQKTCRKHRKENQGSHESPTLNPETVAINLSDVDLSKYITTIAGVMTLSQVKGFVRKNGVNEAKIVEIKNDNVQDTAEQKVQLLRNWHQLHGKKEAYDTLIKDLKKANLCTLAEKIQTIILKDITSDSENSNFRNEIQSLV [D260V] | disrupting interaction strength |
| MLGIWTLLPLVLTSVARLSSKSVNAQVTDINSKGLELRKTVTTVETQNLEGLHHDGQFCHKPCPPGERKARDCTVNGDEPDCVPCQEGKEYTDKAHFSSKCRRCRLCDEGHGLEVEINCTRTQNTKCRCKPNFFCNSTVCEHCDPCTKCEHGIIKECTLTSNTKCKEEGSRSNLGWLCLLLLPIPLIVWVKRKEVQKTCRKHRKENQGSHESPTLNPETVAINLSDVDLSKYITTIAGVMTLSQVKGFVEKNGVNEAKIDEIKNDNVQDTAEQKVQLLRNWHQLHGKKEAYDTLIKDLKKANLCTLAEKIQTIILKDITSDSENSNFRNEIQSLV [R250E] | decreasing interaction |

Variants of: B2
Conditions: with FAS

| Variant | effect of a mutation on the interaction |
| --- | --- |
| MDPFLVLLHSVSSSLSSSELTELKFLCLGRVGKRKLERVQSGLDLFSMLLEQNDLEPGHTELLRELLASLRRHDLLRRVDDFEAGAAAGAAPGEEDLCAAFNVICDNVGKDWRRLARQLKVSDTKIDSIEDRYPRNLTERVEESLRIWKNTEKENATVAHLVGALRSCQMNLVADLVQEVQQARDLQNRSGAMSPMSWNSDASTSEAS [R142E] | disrupting interaction |
| MDPFLVLLHSVSSSLSSSELTELKFLCLGRVGKRKLERVQSGLDLFSMLLEQNDLEPGHTELLRELLASLRRHDLLRRVDDFEAGAAAGAAPGEEDLCAAFNVICDNVGKDWRRLAEQLKVSDTKIDSIEDRYPRNLTERVRESLRIWKNTEKENATVAHLVGALRSCQMNLVADLVQEVQQARDLQNRSGAMSPMSWNSDASTSEAS [R117E] | disrupting interaction |
| MDPFLVLLHSVSSSLSSSELTELKFLCLGRVGKRKLERVQSGLDLFSMLLEQNDLEPGHTELLRELLASLRRHDLLRRVDDFEAGAAAGAAPGEEDLCAAFNVICDNVGKDWRRLARQLKVSRTKIDSIEDRYPRNLTERVRESLRIWKNTEKENATVAHLVGALRSCQMNLVADLVQEVQQARDLQNRSGAMSPMSWNSDASTSEAS [D123R] | disrupting interaction |
| MDPFLVLLHSVSSSLSSSELTELKFLCLGRVGKRKLERVQSGLDLFSMLLEQNDLEPGHTELLRELLASLRRHDLLRRVDDFEAGAAAGAAPGEEDLCAAFNVICDNVGKDWRRLARQLKVSDTKIDSIEDRYPENLTERVRESLRIWKNTEKENATVAHLVGALRSCQMNLVADLVQEVQQARDLQNRSGAMSPMSWNSDASTSEAS [R135E] | disrupting interaction |

Variants of: B2
Conditions: with FAS
Remark: another data set of the same source

| Variant | effect of a mutation on the interaction |
| --- | --- |
| MDPFLVLLHSVSSSLSSSELTELKFLCLGRVGKRKLERVQSGLDLFSMLLEQNDLEPGHTELLRELLASLRRHDLLRRVDDFEAGAAAGAAPGEEDLCAAFNVICDNVGKDWRRLARQLKVSDTKIDSIEDRYPRNLTERVEESLRIWKNTEKENATVAHLVGALRSCQMNLVADLVQEVQQARDLQNRSGAMSPMSWNSDASTSEAS [R142E] | decreasing interaction |
| MDPFLVLLHSVSSSLSSSELTELKFLCLGRVGKRKLERVQSGLDLFSMLLEQNDLEPGHTELLRELLASLRRHDLLRRVDDFEAGAAAGAAPGEEDLCAAFNVICDNVGKDWRRLARQLKVSRTKIDSIEDRYPRNLTERVRESLRIWKNTEKENATVAHLVGALRSCQMNLVADLVQEVQQARDLQNRSGAMSPMSWNSDASTSEAS [D123R] | decreasing interaction |
| MDPFLVLLHSVSSSLSSSELTELKFLCLGRVGKRKLERVQSGLDLFSMLLEQNDLEPGHTELLRELLASLRRHDLLRRVDDFEAGAAAGAAPGEEDLCAAFNVICDNVGKDWRRLARQLKVSDTKIDSIEDRYPENLTERVRESLRIWKNTEKENATVAHLVGALRSCQMNLVADLVQEVQQARDLQNRSGAMSPMSWNSDASTSEAS [R135E] | decreasing interaction |

Source: IntAct's records for PubMed 20935634
